# Test results taken from patent publication US20250042956A1.
# Experiments:
# [1] = target: AT1G22950.1 ICU11 (Arabidopsis thaliana) (UniProt Q3ED68); assay: IP-MS rep 1
# [2] = target: AT3G10480.3 NAC050 (Arabidopsis thaliana) (UniProt Q9SQX9); assay: IP-MS rep 1
# [3] = target: AT3G10490.2 NAC052 (Arabidopsis thaliana) (UniProt Q9SQY0); assay: IP-MS rep 1
# [4] = target: AT3G18210.1 CP2 (Arabidopsis thaliana) (UniProt P0DO23); assay: IP-MS rep 1
# [5] = target: AT3G20740.1 FIE (Arabidopsis thaliana) (UniProt Q9LT47); assay: IP-MS rep 1
# [6] = target: AT5G11530.1 EMF1 (Arabidopsis thaliana) (UniProt Q9LYD9); assay: IP-MS rep 1
# [7] = target: AT5G58230.1 MSI1 (Arabidopsis thaliana) (UniProt O22467); assay: IP-MS rep 1
# AT5G58230.1 MSI1 (Arabidopsis thaliana), sequence (O22467 whole entry): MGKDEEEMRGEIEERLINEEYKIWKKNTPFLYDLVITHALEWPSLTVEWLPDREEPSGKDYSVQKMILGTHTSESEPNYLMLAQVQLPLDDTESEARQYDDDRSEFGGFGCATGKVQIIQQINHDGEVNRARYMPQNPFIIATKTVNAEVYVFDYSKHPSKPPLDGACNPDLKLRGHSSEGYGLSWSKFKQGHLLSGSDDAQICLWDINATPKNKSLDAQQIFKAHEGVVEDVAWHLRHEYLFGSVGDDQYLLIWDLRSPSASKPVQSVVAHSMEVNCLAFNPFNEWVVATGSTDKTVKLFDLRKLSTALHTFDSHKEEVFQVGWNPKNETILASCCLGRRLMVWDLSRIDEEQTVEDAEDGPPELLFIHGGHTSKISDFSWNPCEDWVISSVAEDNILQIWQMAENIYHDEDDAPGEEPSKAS
# [8] = target: T1, AT5G67580.1 TRB2 (Arabidopsis thaliana) (UniProt Q9FJW5); assay: IP-MS rep 1
# T1 sequence: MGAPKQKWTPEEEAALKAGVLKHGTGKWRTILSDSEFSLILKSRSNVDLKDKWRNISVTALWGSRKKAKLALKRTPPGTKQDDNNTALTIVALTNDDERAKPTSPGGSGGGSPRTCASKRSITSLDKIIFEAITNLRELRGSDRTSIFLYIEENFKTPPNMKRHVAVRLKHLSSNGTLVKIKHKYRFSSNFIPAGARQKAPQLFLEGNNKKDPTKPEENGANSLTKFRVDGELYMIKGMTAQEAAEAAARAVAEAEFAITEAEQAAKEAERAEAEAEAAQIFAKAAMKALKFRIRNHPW
# [9] = target: AT1G22950.1 ICU11 (Arabidopsis thaliana) (UniProt Q3ED68); assay: IP-MS rep 2
# [10] = target: AT3G10480.3 NAC050 (Arabidopsis thaliana) (UniProt Q9SQX9); assay: IP-MS rep 2
# [11] = target: AT3G10490.2 NAC052 (Arabidopsis thaliana) (UniProt Q9SQY0); assay: IP-MS rep 2
# [12] = target: AT3G18210.1 CP2 (Arabidopsis thaliana) (UniProt P0DO23); assay: IP-MS rep 2
# [13] = target: AT3G20740.1 FIE (Arabidopsis thaliana) (UniProt Q9LT47); assay: IP-MS rep 2
# [14] = target: AT5G11530.1 EMF1 (Arabidopsis thaliana) (UniProt Q9LYD9); assay: IP-MS rep 2
# [15] = target: AT5G58230.1 MSI1 (Arabidopsis thaliana) (UniProt O22467); assay: IP-MS rep 2
# [16] = target: T1, AT5G67580.1 TRB2 (Arabidopsis thaliana); assay: IP-MS rep 2
# [17] = target: AT1G22950.1 ICU11 (Arabidopsis thaliana) (UniProt Q3ED68); assay: X-link IP-MS
# [18] = target: AT3G10480.3 NAC050 (Arabidopsis thaliana) (UniProt Q9SQX9); assay: X-link IP-MS
# [19] = target: AT3G10490.2 NAC052 (Arabidopsis thaliana) (UniProt Q9SQY0); assay: X-link IP-MS
# [20] = target: AT3G18210.1 CP2 (Arabidopsis thaliana) (UniProt P0DO23); assay: X-link IP-MS
# [21] = target: AT3G20740.1 FIE (Arabidopsis thaliana) (UniProt Q9LT47); assay: X-link IP-MS
# [22] = target: AT5G11530.1 EMF1 (Arabidopsis thaliana) (UniProt Q9LYD9); assay: X-link IP-MS
# [23] = target: AT5G58230.1 MSI1 (Arabidopsis thaliana) (UniProt O22467); assay: X-link IP-MS
# [24] = target: T1, AT5G67580.1 TRB2 (Arabidopsis thaliana); assay: X-link IP-MS
# [25] = target: AT1G49950.3 TRB1 (Arabidopsis thaliana) (UniProt Q8VWK4); assay: IP-MS rep 1
# AT1G49950.3 TRB1 (Arabidopsis thaliana), sequence (Q8VWK4 whole entry): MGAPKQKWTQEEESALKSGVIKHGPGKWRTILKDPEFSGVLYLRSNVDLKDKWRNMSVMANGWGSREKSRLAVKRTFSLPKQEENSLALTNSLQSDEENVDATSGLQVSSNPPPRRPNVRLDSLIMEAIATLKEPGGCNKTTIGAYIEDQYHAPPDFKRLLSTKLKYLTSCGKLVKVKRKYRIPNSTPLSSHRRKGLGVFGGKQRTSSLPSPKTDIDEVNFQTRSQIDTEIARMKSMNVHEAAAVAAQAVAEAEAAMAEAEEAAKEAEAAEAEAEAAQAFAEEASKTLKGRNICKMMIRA
# [26] = target: AT2G23380.1 CLF (Arabidopsis thaliana) (UniProt P93831); assay: IP-MS rep 1
# AT2G23380.1 CLF (Arabidopsis thaliana), sequence (P93831 whole entry): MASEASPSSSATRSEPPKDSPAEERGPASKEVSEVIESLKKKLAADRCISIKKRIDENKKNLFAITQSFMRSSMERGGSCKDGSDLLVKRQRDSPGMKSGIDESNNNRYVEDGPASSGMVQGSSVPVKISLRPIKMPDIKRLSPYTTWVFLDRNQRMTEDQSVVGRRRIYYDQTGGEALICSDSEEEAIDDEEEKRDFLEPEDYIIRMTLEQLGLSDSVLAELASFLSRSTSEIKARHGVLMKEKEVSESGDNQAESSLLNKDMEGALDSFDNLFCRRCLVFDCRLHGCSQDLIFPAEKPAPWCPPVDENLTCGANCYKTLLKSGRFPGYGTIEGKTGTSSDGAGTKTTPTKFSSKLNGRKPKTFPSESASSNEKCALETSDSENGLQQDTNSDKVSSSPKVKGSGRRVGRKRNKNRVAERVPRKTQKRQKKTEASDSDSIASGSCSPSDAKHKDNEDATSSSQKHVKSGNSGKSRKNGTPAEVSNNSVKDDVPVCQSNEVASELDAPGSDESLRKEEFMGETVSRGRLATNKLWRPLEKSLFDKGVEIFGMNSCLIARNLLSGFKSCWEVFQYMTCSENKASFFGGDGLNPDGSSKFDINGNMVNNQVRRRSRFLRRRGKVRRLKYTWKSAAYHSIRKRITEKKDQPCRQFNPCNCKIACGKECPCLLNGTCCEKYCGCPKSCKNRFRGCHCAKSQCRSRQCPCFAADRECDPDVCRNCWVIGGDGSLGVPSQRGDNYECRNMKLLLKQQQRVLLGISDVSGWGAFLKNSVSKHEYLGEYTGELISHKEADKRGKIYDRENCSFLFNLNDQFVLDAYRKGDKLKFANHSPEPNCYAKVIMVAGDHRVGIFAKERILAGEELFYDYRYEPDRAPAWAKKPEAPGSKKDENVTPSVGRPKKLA
# [27] = target: T2, AT4G02020.1 SWN (Arabidopsis thaliana) (UniProt Q9ZSM8); assay: IP-MS rep 1
# T2 sequence (looked up): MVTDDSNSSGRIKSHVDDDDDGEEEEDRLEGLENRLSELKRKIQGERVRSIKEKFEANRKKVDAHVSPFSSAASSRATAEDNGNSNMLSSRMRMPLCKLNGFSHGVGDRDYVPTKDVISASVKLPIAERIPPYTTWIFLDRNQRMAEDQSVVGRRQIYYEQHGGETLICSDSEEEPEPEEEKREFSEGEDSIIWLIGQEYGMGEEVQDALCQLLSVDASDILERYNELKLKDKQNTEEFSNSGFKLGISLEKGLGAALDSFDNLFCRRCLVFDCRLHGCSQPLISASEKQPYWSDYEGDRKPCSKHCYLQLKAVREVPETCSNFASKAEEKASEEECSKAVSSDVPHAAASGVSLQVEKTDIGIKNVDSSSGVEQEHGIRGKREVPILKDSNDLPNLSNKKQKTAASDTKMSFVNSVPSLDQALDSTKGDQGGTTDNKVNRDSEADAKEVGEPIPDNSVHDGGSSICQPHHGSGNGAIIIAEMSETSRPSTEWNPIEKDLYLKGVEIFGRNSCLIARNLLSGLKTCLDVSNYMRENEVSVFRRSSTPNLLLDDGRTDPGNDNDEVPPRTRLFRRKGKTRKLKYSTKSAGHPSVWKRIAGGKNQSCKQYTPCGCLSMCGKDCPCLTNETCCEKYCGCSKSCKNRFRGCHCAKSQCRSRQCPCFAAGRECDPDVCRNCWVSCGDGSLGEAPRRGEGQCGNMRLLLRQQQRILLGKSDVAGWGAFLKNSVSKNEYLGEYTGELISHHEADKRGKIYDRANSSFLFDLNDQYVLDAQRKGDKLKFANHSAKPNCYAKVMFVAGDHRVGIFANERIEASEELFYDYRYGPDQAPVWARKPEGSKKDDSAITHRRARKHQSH
# [28] = target: T3, AT5G17690.1 LHP1 (Arabidopsis thaliana) (UniProt Q946J8); assay: IP-MS rep 1
# T3 sequence: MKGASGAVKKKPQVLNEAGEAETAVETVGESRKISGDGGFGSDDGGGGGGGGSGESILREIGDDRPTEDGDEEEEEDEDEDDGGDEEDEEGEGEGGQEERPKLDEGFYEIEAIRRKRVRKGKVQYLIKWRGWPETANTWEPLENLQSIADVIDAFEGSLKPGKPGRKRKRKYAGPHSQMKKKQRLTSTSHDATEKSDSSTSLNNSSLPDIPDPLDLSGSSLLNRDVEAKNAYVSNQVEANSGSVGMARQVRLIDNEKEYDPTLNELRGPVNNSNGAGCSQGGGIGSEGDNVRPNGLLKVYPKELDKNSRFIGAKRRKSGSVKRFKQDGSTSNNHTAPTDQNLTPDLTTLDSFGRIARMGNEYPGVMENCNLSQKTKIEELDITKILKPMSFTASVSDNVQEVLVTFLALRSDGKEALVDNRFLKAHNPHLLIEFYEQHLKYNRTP
# [29] = target: AT5G51230.1 EMF2 (Arabidopsis thaliana) (UniProt Q8L6Y4); assay: IP-MS rep 1
# [30] = target: AT1G49950.3 TRB1 (Arabidopsis thaliana) (UniProt Q8VWK4); assay: IP-MS rep 2
# [31] = target: AT2G23380.1 CLF (Arabidopsis thaliana) (UniProt P93831); assay: IP-MS rep 2
# [32] = target: T2, AT4G02020.1 SWN (Arabidopsis thaliana); assay: IP-MS rep 2
# [33] = target: T3, AT5G17690.1 LHP1 (Arabidopsis thaliana); assay: IP-MS rep 2
# [34] = target: AT5G51230.1 EMF2 (Arabidopsis thaliana) (UniProt Q8L6Y4); assay: IP-MS rep 2
# [35] = target: AT1G49950.3 TRB1 (Arabidopsis thaliana) (UniProt Q8VWK4); assay: X-link IP-MS
# [36] = target: AT2G23380.1 CLF (Arabidopsis thaliana) (UniProt P93831); assay: X-link IP-MS
# [37] = target: T2, AT4G02020.1 SWN (Arabidopsis thaliana); assay: X-link IP-MS
# [38] = target: T3, AT5G17690.1 LHP1 (Arabidopsis thaliana); assay: X-link IP-MS
# [39] = target: AT5G51230.1 EMF2 (Arabidopsis thaliana) (UniProt Q8L6Y4); assay: X-link IP-MS
# [40] = target: AT4G20400.1 JMJ14 (Arabidopsis thaliana) (UniProt Q8GUI6); assay: IP-MS rep 1
# AT4G20400.1 JMJ14 (Arabidopsis thaliana), sequence (Q8GUI6 whole entry): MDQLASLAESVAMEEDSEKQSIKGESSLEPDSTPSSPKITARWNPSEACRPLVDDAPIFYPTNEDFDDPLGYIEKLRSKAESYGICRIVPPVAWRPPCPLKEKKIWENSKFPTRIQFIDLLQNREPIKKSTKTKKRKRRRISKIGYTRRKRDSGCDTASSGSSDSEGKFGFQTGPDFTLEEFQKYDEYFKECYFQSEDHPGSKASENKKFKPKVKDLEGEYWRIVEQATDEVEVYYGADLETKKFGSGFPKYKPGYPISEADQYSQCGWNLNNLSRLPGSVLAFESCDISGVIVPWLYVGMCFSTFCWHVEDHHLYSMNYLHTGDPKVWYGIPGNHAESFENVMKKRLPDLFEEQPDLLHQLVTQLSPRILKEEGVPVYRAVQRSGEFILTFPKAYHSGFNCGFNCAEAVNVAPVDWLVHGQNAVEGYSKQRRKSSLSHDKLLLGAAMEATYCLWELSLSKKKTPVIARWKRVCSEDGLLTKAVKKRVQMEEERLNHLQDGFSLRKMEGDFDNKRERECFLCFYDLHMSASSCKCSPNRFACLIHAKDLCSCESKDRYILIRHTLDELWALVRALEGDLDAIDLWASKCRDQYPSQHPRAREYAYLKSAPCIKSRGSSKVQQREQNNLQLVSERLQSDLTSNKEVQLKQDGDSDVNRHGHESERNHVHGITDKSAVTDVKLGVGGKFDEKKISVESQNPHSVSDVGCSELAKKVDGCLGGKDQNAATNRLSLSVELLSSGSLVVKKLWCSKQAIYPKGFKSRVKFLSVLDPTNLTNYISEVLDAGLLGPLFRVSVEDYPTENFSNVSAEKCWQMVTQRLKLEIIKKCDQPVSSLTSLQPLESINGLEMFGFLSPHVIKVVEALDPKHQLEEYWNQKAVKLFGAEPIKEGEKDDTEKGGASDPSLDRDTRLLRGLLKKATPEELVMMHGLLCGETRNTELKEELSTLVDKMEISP
# [41] = target: AT4G38130.1 HDA19 (Arabidopsis thaliana) (UniProt O22446); assay: IP-MS rep 1
# AT4G38130.1 HDA19 (Arabidopsis thaliana), sequence (O22446 whole entry): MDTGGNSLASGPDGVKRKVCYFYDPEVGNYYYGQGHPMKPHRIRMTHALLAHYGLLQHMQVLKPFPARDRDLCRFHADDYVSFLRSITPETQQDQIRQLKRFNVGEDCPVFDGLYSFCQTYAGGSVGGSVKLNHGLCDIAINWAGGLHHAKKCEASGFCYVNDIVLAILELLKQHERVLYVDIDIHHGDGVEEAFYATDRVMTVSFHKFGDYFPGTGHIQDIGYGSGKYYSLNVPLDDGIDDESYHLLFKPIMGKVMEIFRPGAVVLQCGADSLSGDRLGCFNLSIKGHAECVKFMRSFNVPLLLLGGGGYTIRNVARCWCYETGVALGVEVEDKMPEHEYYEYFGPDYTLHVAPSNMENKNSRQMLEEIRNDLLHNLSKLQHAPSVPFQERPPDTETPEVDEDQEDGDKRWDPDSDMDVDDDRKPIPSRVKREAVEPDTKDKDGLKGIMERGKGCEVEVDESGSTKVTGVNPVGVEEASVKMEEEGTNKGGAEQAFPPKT
# [42] = target: AT5G63110.1 HDA6 (Arabidopsis thaliana) (UniProt Q9FML2); assay: IP-MS rep 1
# AT5G63110.1 HDA6 (Arabidopsis thaliana), sequence (Q9FML2 whole entry): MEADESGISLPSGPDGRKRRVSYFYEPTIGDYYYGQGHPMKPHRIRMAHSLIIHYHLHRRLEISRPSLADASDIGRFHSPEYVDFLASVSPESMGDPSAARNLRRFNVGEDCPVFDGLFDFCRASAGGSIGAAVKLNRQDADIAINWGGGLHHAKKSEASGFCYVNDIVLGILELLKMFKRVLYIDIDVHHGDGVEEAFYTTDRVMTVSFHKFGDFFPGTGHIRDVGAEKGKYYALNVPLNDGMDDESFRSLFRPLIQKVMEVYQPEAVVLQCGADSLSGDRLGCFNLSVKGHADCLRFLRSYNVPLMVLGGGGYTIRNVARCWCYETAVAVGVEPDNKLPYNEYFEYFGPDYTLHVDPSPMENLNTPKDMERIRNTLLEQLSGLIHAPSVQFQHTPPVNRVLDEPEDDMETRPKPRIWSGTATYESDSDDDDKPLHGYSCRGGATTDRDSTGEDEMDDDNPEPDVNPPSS
# [43] = target: AT4G20400.1 JMJ14 (Arabidopsis thaliana) (UniProt Q8GUI6); assay: IP-MS rep 2
# [44] = target: AT4G38130.1 HDA19 (Arabidopsis thaliana) (UniProt O22446); assay: IP-MS rep 2
# [45] = target: AT5G63110.1 HDA6 (Arabidopsis thaliana) (UniProt Q9FML2); assay: IP-MS rep 2
# AT3G18210.1 CP2 (Arabidopsis thaliana), sequence (P0DO23 whole entry): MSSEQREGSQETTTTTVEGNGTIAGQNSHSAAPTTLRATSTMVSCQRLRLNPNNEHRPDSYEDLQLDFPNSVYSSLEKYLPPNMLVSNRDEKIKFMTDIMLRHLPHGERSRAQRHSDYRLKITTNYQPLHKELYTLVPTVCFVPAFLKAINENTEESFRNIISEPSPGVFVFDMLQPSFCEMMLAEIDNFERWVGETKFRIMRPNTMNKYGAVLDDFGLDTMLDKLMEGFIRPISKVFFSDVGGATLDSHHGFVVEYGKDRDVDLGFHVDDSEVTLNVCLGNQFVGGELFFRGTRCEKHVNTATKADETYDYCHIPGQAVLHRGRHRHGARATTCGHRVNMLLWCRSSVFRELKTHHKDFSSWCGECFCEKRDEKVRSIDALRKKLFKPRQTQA
# AT3G10480.3 NAC050 (Arabidopsis thaliana), sequence (Q9SQX9 whole entry): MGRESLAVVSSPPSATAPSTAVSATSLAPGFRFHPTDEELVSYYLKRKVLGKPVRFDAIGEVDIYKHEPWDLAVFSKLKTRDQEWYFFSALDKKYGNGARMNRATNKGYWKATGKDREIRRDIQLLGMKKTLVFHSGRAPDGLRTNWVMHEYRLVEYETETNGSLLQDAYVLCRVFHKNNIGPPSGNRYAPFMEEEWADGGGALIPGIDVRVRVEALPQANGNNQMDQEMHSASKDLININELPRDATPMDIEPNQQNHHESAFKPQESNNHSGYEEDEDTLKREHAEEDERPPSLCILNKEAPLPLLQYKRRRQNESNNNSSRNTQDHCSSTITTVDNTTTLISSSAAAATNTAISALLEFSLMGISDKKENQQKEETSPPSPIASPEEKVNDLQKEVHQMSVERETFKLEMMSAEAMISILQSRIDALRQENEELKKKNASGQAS
# AT3G10490.2 NAC052 (Arabidopsis thaliana), sequence (Q9SQY0 whole entry): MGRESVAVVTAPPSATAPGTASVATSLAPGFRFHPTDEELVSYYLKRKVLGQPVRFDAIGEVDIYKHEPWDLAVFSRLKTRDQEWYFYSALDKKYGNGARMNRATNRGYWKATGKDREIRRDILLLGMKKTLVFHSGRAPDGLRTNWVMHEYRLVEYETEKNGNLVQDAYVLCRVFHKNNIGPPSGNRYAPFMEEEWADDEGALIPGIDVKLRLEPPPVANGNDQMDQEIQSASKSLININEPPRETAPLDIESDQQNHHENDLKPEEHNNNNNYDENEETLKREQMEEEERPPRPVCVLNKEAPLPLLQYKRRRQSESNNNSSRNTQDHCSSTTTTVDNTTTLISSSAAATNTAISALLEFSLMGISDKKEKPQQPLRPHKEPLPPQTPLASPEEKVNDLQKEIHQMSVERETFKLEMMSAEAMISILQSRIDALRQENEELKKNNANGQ
Substance,IP-MS count [1],IP-MS count [2],IP-MS count [3],IP-MS count [4],IP-MS count [5],IP-MS count [6],IP-MS count [7],IP-MS count [9],IP-MS count [10],IP-MS count [11],IP-MS count [12],IP-MS count [13],IP-MS count [14],IP-MS count [15],IP-MS count [17],IP-MS count [18],IP-MS count [19],IP-MS count [20],IP-MS count [27],IP-MS count [32],also measured
FLAG-TRB1 (from UniProt Q8VWK4 1-300),75,33,103,13,1,3,11,79,35,103,17,3,2,12,27,40,55,11,,,IP-MS count [8]: 0; IP-MS count [16]: 0; IP-MS count [21]: 5; IP-MS count [22]: 11; IP-MS count [23]: 12; IP-MS count [24]: 2
FLAG-TRB2 (from UniProt Q9FJW5 1-299),53,1,11,4,30,55,26,50,1,22,5,28,56,21,33,39,55,17,11,12,IP-MS count [25]: 0; IP-MS count [26]: 5; IP-MS count [28]: 15; IP-MS count [29]: 10; IP-MS count [30]: 4; IP-MS count [31]: 5; IP-MS count [33]: 15; IP-MS count [34]: 15; IP-MS count [35]: 10; IP-MS count [36]: 15; IP-MS count [21]: 35; IP-MS count [37]: 33; IP-MS count [22]: 90; IP-MS count [38]: 17; IP-MS count [39]: 27; IP-MS count [23]: 30
TRBIP2 (bait of the TRBIP2 IP-MS),16,,4,,,4,3,4,,0,,,0,0,,,,,3,0,IP-MS count [40]: 3; IP-MS count [41]: 4; IP-MS count [42]: 10; IP-MS count [43]: 0; IP-MS count [44]: 1; IP-MS count [45]: 3

# Further lines, with some results ahead:
IP-MS count [1],IP-MS count [2],IP-MS count [3],IP-MS count [4],IP-MS count [5],IP-MS count [6],IP-MS count [7],IP-MS count [9],IP-MS count [10],IP-MS count [11],IP-MS count [12],IP-MS count [13],IP-MS count [14],IP-MS count [15],IP-MS count [17],IP-MS count [18],IP-MS count [19],IP-MS count [20],IP-MS count [27],IP-MS count [32],Substance,also measured
79,5,24,38,34,81,37,73,4,28,31,41,83,35,37,39,59,12,16,24,FLAG-TRB3 (from UniProt Q9M2X3 1-295),IP-MS count [25]: 0; IP-MS count [26]: 15; IP-MS count [28]: 15; IP-MS count [29]: 23; IP-MS count [30]: 0; IP-MS count [31]: 19; IP-MS count [33]: 19; IP-MS count [34]: 23; IP-MS count [35]: 9; IP-MS count [36]: 19; IP-MS count [21]: 34; IP-MS count [37]: 36; IP-MS count [22]: 104; IP-MS count [38]: 18; IP-MS count [39]: 29; IP-MS count [23]: 31
32,,10,,22,36,20,19,,2,,3,7,9,,,,,15,6,TRBIP1 (bait of the TRBIP1 IP-MS),IP-MS count [26]: 7; IP-MS count [40]: 7; IP-MS count [41]: 4; IP-MS count [28]: 14; IP-MS count [29]: 10; IP-MS count [42]: 7; IP-MS count [31]: 0; IP-MS count [43]: 0; IP-MS count [44]: 3; IP-MS count [33]: 8; IP-MS count [34]: 3; IP-MS count [45]: 5
